Data as given in US20260167699A1 (Chugai, published 2026).

T1: FcγRIIa(R) (human, UniProt P12318 34-217)
T1 construct: extracellular domain; also called 2aR
T1 sequence: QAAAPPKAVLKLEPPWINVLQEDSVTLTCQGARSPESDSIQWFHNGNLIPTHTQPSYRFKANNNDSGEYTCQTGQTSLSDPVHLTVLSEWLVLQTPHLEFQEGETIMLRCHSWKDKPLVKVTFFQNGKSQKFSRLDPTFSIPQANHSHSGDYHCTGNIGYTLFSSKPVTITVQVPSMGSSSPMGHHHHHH

T2: FcγRIIa(H) (human, UniProt P12318 34-217)
T2 construct: extracellular domain; also called 2aH
T2 sequence: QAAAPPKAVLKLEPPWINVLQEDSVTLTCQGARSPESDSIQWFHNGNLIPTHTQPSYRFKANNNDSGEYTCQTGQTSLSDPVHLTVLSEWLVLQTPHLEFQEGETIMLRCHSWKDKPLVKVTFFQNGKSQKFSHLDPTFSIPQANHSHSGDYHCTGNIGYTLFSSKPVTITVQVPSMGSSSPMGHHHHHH

T3: FcγRIIb (human, UniProt P31994 43-217)
T3 construct: extracellular domain; also called 2b
T3 sequence: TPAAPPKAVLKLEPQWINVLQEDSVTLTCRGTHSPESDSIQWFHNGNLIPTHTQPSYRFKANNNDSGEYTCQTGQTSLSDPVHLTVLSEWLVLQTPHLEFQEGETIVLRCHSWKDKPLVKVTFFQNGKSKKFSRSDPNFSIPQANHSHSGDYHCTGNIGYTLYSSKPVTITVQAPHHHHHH


Columns and labels:
Test in all cases: SPR, relative to GpH7-A5/GpH7-B3/GpL16-k0 =100
FcγRIa = biological target: T4, FcγRIa (human, UniProt P12314 16-292)
T4 construct: extracellular domain; also called 1a
T4 sequence (P12314 other isoform, or with tags, fused parts or gaps): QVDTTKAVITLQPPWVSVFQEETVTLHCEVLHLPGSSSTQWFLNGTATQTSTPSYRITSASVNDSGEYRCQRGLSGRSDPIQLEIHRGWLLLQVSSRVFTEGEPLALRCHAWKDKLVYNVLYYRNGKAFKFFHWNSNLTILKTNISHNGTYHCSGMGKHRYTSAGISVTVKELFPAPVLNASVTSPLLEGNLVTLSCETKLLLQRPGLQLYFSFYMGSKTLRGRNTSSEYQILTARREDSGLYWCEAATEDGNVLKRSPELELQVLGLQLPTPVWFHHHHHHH

FcγRIIa(R) = biological target: T1, FcγRIIa(R)
FcγRIIa(H) = biological target: T2, FcγRIIa(H)
FcγRIIb = biological target: T3, FcγRIIb

Binder	He/Con 1a (FcγRIa) [%]	He/Con 2aR (FcγRIIa(R)) [%]	He/Con 2aH (FcγRIIa(H)) [%]	He/Con 2b (FcγRIIb) [%]
GpH7-A5/GpH7-B3 variant S298_02A/GpL16-k0 (antibody, human IgG1, kappa, He Ab: heterodimerized IgG1, one H chain mutated) heavy 1: not shown heavy 2: not shown light: DIVMTQSPLSLPVTPGEPASISCQASESLVHSNRNTYLHWYLQKPGQSPQLLIYKVSNRFSGVPDRFSGSGSGTDFTLKISRVEAEDVGVYYCSQNTHVPPTFGQGTKVEIERTVAAPSVFIFPPSDEQLKSGTASVVCLLNNFYPREAKVQWKVDNALQSGNSQESVTEQDSKDSTYSLSSTLTLSKADYEKHKVYACEVTHQGLSSPVTKSFNRGEC	103	87.2	74.3	74.4
GpH7-A5/GpH7-B3 variant S298_11K/GpL16-k0 (antibody, human IgG1, kappa, He Ab: heterodimerized IgG1, one H chain mutated) heavy 1: not shown heavy 2: not shown light: DIVMTQSPLSLPVTPGEPASISCQASESLVHSNRNTYLHWYLQKPGQSPQLLIYKVSNRFSGVPDRFSGSGSGTDFTLKISRVEAEDVGVYYCSQNTHVPPTFGQGTKVEIERTVAAPSVFIFPPSDEQLKSGTASVVCLLNNFYPREAKVQWKVDNALQSGNSQESVTEQDSKDSTYSLSSTLTLSKADYEKHKVYACEVTHQGLSSPVTKSFNRGEC	106	91	63.9	62.2
GpH7-A5/GpH7-B3 variant S298_07I/GpL16-k0 (antibody, human IgG1, kappa, He Ab: heterodimerized IgG1, one H chain mutated) heavy 1: not shown heavy 2: not shown light: DIVMTQSPLSLPVTPGEPASISCQASESLVHSNRNTYLHWYLQKPGQSPQLLIYKVSNRFSGVPDRFSGSGSGTDFTLKISRVEAEDVGVYYCSQNTHVPPTFGQGTKVEIERTVAAPSVFIFPPSDEQLKSGTASVVCLLNNFYPREAKVQWKVDNALQSGNSQESVTEQDSKDSTYSLSSTLTLSKADYEKHKVYACEVTHQGLSSPVTKSFNRGEC	104	86.2	84.9	71.5
GpH7-A5/GpH7-B3 variant S298_08L/GpL16-k0 (antibody, human IgG1, kappa, He Ab: heterodimerized IgG1, one H chain mutated) heavy 1: not shown heavy 2: not shown light: DIVMTQSPLSLPVTPGEPASISCQASESLVHSNRNTYLHWYLQKPGQSPQLLIYKVSNRFSGVPDRFSGSGSGTDFTLKISRVEAEDVGVYYCSQNTHVPPTFGQGTKVEIERTVAAPSVFIFPPSDEQLKSGTASVVCLLNNFYPREAKVQWKVDNALQSGNSQESVTEQDSKDSTYSLSSTLTLSKADYEKHKVYACEVTHQGLSSPVTKSFNRGEC	104	100	83	110
GpH7-A5/GpH7-B3 variant S298_16H/GpL16-k0 (antibody, human IgG1, kappa, He Ab: heterodimerized IgG1, one H chain mutated) heavy 1: not shown heavy 2: not shown light: DIVMTQSPLSLPVTPGEPASISCQASESLVHSNRNTYLHWYLQKPGQSPQLLIYKVSNRFSGVPDRFSGSGSGTDFTLKISRVEAEDVGVYYCSQNTHVPPTFGQGTKVEIERTVAAPSVFIFPPSDEQLKSGTASVVCLLNNFYPREAKVQWKVDNALQSGNSQESVTEQDSKDSTYSLSSTLTLSKADYEKHKVYACEVTHQGLSSPVTKSFNRGEC	105	84.7	80.2	64.4
GpH7-A5/GpH7-B3 variant S324_04F/GpL16-k0 (antibody, human IgG1, kappa, He Ab: heterodimerized IgG1, one H chain mutated) heavy 1: not shown heavy 2: not shown light: DIVMTQSPLSLPVTPGEPASISCQASESLVHSNRNTYLHWYLQKPGQSPQLLIYKVSNRFSGVPDRFSGSGSGTDFTLKISRVEAEDVGVYYCSQNTHVPPTFGQGTKVEIERTVAAPSVFIFPPSDEQLKSGTASVVCLLNNFYPREAKVQWKVDNALQSGNSQESVTEQDSKDSTYSLSSTLTLSKADYEKHKVYACEVTHQGLSSPVTKSFNRGEC	103	99.6	106	99.9
GpH7-A5/GpH7-B3 variant S324_02A/GpL16-k0 (antibody, human IgG1, kappa, He Ab: heterodimerized IgG1, one H chain mutated) heavy 1: not shown heavy 2: not shown light: DIVMTQSPLSLPVTPGEPASISCQASESLVHSNRNTYLHWYLQKPGQSPQLLIYKVSNRFSGVPDRFSGSGSGTDFTLKISRVEAEDVGVYYCSQNTHVPPTFGQGTKVEIERTVAAPSVFIFPPSDEQLKSGTASVVCLLNNFYPREAKVQWKVDNALQSGNSQESVTEQDSKDSTYSLSSTLTLSKADYEKHKVYACEVTHQGLSSPVTKSFNRGEC	96.9	99.9	114	102
GpH7-A5/GpH7-B3 variant S298_03V/GpL16-k0 (antibody, human IgG1, kappa, He Ab: heterodimerized IgG1, one H chain mutated) heavy 1: not shown heavy 2: not shown light: DIVMTQSPLSLPVTPGEPASISCQASESLVHSNRNTYLHWYLQKPGQSPQLLIYKVSNRFSGVPDRFSGSGSGTDFTLKISRVEAEDVGVYYCSQNTHVPPTFGQGTKVEIERTVAAPSVFIFPPSDEQLKSGTASVVCLLNNFYPREAKVQWKVDNALQSGNSQESVTEQDSKDSTYSLSSTLTLSKADYEKHKVYACEVTHQGLSSPVTKSFNRGEC	106	82.5	83.2	65.4
GpH7-A5/GpH7-B3 variant S298_06M/GpL16-k0 (antibody, human IgG1, kappa, He Ab: heterodimerized IgG1, one H chain mutated) heavy 1: not shown heavy 2: not shown light: DIVMTQSPLSLPVTPGEPASISCQASESLVHSNRNTYLHWYLQKPGQSPQLLIYKVSNRFSGVPDRFSGSGSGTDFTLKISRVEAEDVGVYYCSQNTHVPPTFGQGTKVEIERTVAAPSVFIFPPSDEQLKSGTASVVCLLNNFYPREAKVQWKVDNALQSGNSQESVTEQDSKDSTYSLSSTLTLSKADYEKHKVYACEVTHQGLSSPVTKSFNRGEC	111	104	95.8	103
GpH7-A5/GpH7-B3 variant S298_04F/GpL16-k0 (antibody, human IgG1, kappa, He Ab: heterodimerized IgG1, one H chain mutated) heavy 1: not shown heavy 2: not shown light: DIVMTQSPLSLPVTPGEPASISCQASESLVHSNRNTYLHWYLQKPGQSPQLLIYKVSNRFSGVPDRFSGSGSGTDFTLKISRVEAEDVGVYYCSQNTHVPPTFGQGTKVEIERTVAAPSVFIFPPSDEQLKSGTASVVCLLNNFYPREAKVQWKVDNALQSGNSQESVTEQDSKDSTYSLSSTLTLSKADYEKHKVYACEVTHQGLSSPVTKSFNRGEC	106	80.4	75.5	66.3

The next lines start with the values.

He/Con 1a (FcγRIa) [%]	He/Con 2aR (FcγRIIa(R)) [%]	He/Con 2aH (FcγRIIa(H)) [%]	He/Con 2b (FcγRIIb) [%]	Binder
104	94.2	96.2	79	GpH7-A5/GpH7-B3 variant S298_14T/GpL16-k0 (antibody, human IgG1, kappa, He Ab: heterodimerized IgG1, one H chain mutated) heavy 1: not shown heavy 2: not shown light: DIVMTQSPLSLPVTPGEPASISCQASESLVHSNRNTYLHWYLQKPGQSPQLLIYKVSNRFSGVPDRFSGSGSGTDFTLKISRVEAEDVGVYYCSQNTHVPPTFGQGTKVEIERTVAAPSVFIFPPSDEQLKSGTASVVCLLNNFYPREAKVQWKVDNALQSGNSQESVTEQDSKDSTYSLSSTLTLSKADYEKHKVYACEVTHQGLSSPVTKSFNRGEC
106	90.9	88.9	74.3	GpH7-A5/GpH7-B3 variant S298_19Q/GpL16-k0 (antibody, human IgG1, kappa, He Ab: heterodimerized IgG1, one H chain mutated) heavy 1: not shown heavy 2: not shown light: DIVMTQSPLSLPVTPGEPASISCQASESLVHSNRNTYLHWYLQKPGQSPQLLIYKVSNRFSGVPDRFSGSGSGTDFTLKISRVEAEDVGVYYCSQNTHVPPTFGQGTKVEIERTVAAPSVFIFPPSDEQLKSGTASVVCLLNNFYPREAKVQWKVDNALQSGNSQESVTEQDSKDSTYSLSSTLTLSKADYEKHKVYACEVTHQGLSSPVTKSFNRGEC
93.2	94.4	110	106	GpH7-A5/GpH7-B3 variant S324_01G/GpL16-k0 (antibody, human IgG1, kappa, He Ab: heterodimerized IgG1, one H chain mutated) heavy 1: not shown heavy 2: not shown light: DIVMTQSPLSLPVTPGEPASISCQASESLVHSNRNTYLHWYLQKPGQSPQLLIYKVSNRFSGVPDRFSGSGSGTDFTLKISRVEAEDVGVYYCSQNTHVPPTFGQGTKVEIERTVAAPSVFIFPPSDEQLKSGTASVVCLLNNFYPREAKVQWKVDNALQSGNSQESVTEQDSKDSTYSLSSTLTLSKADYEKHKVYACEVTHQGLSSPVTKSFNRGEC
106	81.6	67.4	58.6	GpH7-A5/GpH7-B3 variant S298_12R/GpL16-k0 (antibody, human IgG1, kappa, He Ab: heterodimerized IgG1, one H chain mutated) heavy 1: not shown heavy 2: not shown light: DIVMTQSPLSLPVTPGEPASISCQASESLVHSNRNTYLHWYLQKPGQSPQLLIYKVSNRFSGVPDRFSGSGSGTDFTLKISRVEAEDVGVYYCSQNTHVPPTFGQGTKVEIERTVAAPSVFIFPPSDEQLKSGTASVVCLLNNFYPREAKVQWKVDNALQSGNSQESVTEQDSKDSTYSLSSTLTLSKADYEKHKVYACEVTHQGLSSPVTKSFNRGEC
97.7	113	108	128	GpH7-A5/GpH7-B3 variant S324_03V/GpL16-k0 (antibody, human IgG1, kappa, He Ab: heterodimerized IgG1, one H chain mutated) heavy 1: not shown heavy 2: not shown light: DIVMTQSPLSLPVTPGEPASISCQASESLVHSNRNTYLHWYLQKPGQSPQLLIYKVSNRFSGVPDRFSGSGSGTDFTLKISRVEAEDVGVYYCSQNTHVPPTFGQGTKVEIERTVAAPSVFIFPPSDEQLKSGTASVVCLLNNFYPREAKVQWKVDNALQSGNSQESVTEQDSKDSTYSLSSTLTLSKADYEKHKVYACEVTHQGLSSPVTKSFNRGEC
104	75.7	71.2	62.2	GpH7-A5/GpH7-B3 variant S298_15Y/GpL16-k0 (antibody, human IgG1, kappa, He Ab: heterodimerized IgG1, one H chain mutated) heavy 1: not shown heavy 2: not shown light: DIVMTQSPLSLPVTPGEPASISCQASESLVHSNRNTYLHWYLQKPGQSPQLLIYKVSNRFSGVPDRFSGSGSGTDFTLKISRVEAEDVGVYYCSQNTHVPPTFGQGTKVEIERTVAAPSVFIFPPSDEQLKSGTASVVCLLNNFYPREAKVQWKVDNALQSGNSQESVTEQDSKDSTYSLSSTLTLSKADYEKHKVYACEVTHQGLSSPVTKSFNRGEC
